We go through 3 molecules from patent publication US10858688B2, “Observation method using binding and dissociation probe” (KYOTO UNIVERSITY, priority 2015, dated 2020).

For experiment [1], the system named is microtubule. Put plainly: IRIS image test (reconstruction image). The format is cell-based, Xenopus laevis. The following applies: reconstruction from 10000 frames with DAOSTORM
More on the design: key: “IRIS image” is positive (P) when above criterion (3) is met. As for the experimental part:
(§1) […] It is possible to reconstruct an image of a target substance by integrating the central positions of the respective speckles. The IRIS image test of the above (3) whose result is described in table 1 was performed in the following procedures. By using all the speckle images of 10000 frames picked up in the localization test, the central point of a probe that has bound to a target in each frame of the speckle images was determined with nanometer accuracy by using DAOSTORM. By adding a large number of pieces of central point information in the fluorescence images of 10000 frames, a reconstruction image (observation image) was generated. Whether or not a distribution of a target molecule was able to be observed in that reconstruction image was determined, and when a distribution of a target molecule was observed, the result was treated as P (positive).

The test system of experiment [2] is microtubule. Put plainly: Measurement of binding half-life of probe-target complex. Conditions: fixed XTC cell, single exponential fit. More on the design: species or system Xenopus laevis. The text has this:
(§2) A probe and a target substance have the following binding characteristics. […] The above half-life herein is preferably a half-life of a probe-target complex formed by binding between a probe and a target substance in a case when a medium containing a probe and a sample containing a target substance that is to be observed are brought into contact under a condition for performing an imaging step. […] Measurement procedures for the half-life are as below. […] Ndissociation is a cumulative relative frequency of a probe that dissociated. A cumulative relative frequency is a ratio of the speckles that disappeared within a given period of time to the total number of measured speckles (i.e. probes) (i.e. probes that dissociated within a given period of time), and represents the total number as 1. Then, by fitting the above complementary cumulative relative frequency function with an exponent function, that half-life is calculated.
The measurement of binding half-life, whose result is shown in table 1, was performed in the following procedures. Speckle images of 10000 frames picked up in the localization test were used in order to measure a period of time between the appearance of a probe that has bound to a target in a speckle image and disappearance through dissociation in a semi-manual mode by using Speckle TrackerJ, an ImageJ plug-in. In case of for example picking up of images with an exposure time of 50 ms and at a frame rate of 20 Hz, it is assumed that a period of time between the appearance and disappearance of a speckle that is observed in only one of consecutive frames is 50 ms and a period of time between the appearance and disappearance of a speckle observed in only two consecutive frames is 100 ms. […] Ndissociation is a cumulative relative frequency of probes that dissociated. Then, by fitting the complementary cumulative relative frequency function with an exponent function, the half-life was calculated. However, the binding half-life with respect to an actin filament of Atto488-Lifeact was measured by using a method that is described in detail in the section for FIG. 9 in the Brief Description of the Drawings.

The subject of experiment [3] is microtubule. Kind of experiment: Localization test of probe candidates (integrated SiMS images). The format is cell-based, Xenopus laevis. Further details: key: “localization” is positive (P) when above criterion (1) is met. Conditions: fixed, permeabilized XTC cell; lysate supernatant of EGFP fused probe; TIRF, 10000 frames. As for the experimental part:
(§3) HEK (Human embryonic kidney)-293F cells were transfected with a plasmid encoding a probe candidate protein tagged with FLAG-EGFP or 3×FLAG-EGFP. […] Centrifugal separation was performed on the lysate and the supernatant liquid was collected. In order to perform screening for a probe for IRIS, the binding capacity of a probe candidate in the supernatant liquid with respect to the structure of an XCT cell that was fixed with paraformaldehyde (PFA) and that received a permeabilization process was tested. The appearance and disappearance of single molecule speckles (Single-molecule speckles, SiMS) in the structure was tested. Screening was performed for a probe for IRIS in accordance with the following criteria:
(§4) (1) It is possible to confirm a distribution of target substances in the structure in an image resulting from adding SiMS images;
(§5) The localization test of the above (1), whose result is shown in table 1, was performed in the following procedures. First, the supernatant liquid of lysate of a cell that expressed each probe candidate was brought into contact with an XCT cell that was fixed on a coverglass and that received a permeabilization process. […] The obtained speckle images of 10000 frames were integrated so as to confirm whether or not a distribution of target substances in the cell (microtubule, intermediate filament, focal adhesion or actin filament) was able to be confirmed. When a distribution of a target substances was able to be confirmed, the result of the localization test was treated as P (positive).

The test system of experiment [4] is microtubule. Kind of experiment: Washability test of probe candidates. More on the design: key: “washability” is positive (P) when above criterion (2) is met. It is filed as cell-based, Xenopus laevis. The following applies: speckles equal to or less than about 10% after switching imaging solution 10 to 20 times. As for the experimental part: (§6) (2) It is possible to wash and remove a probe after SiMS imaging (imaging step);
(§7) The […] of the above (2), whose result is shown in table 1, was performed in the following procedures. […] This switching of imaging solution was conducted slowly so that the observation position would not shift. Next, an imaging solution not containing a probe and not containing the active oxygen-scavenging mix was switched 10 to 20 times. After the switching, for confirmation, for an XCT cell sample in the observation chamber, speckle images of 10 frames were picked up under a similar condition to that of the localization test described in the previous paragraph, and when the number of speckles confirmed in the speckle images (i.e., the number of probes that had bound) became sufficiently smaller (equal to or less than about 10%) than the number of the speckles in the speckle images before the washing operation, washing was determined to be possible and the result was treated as P (positive).

The test system of experiment [5] is focal adhesion. Kind of experiment: IRIS image test (reconstruction image). It is filed as cell-based, Xenopus laevis. More on the design: key: “IRIS image” is positive (P) when above criterion (3) is met. Conditions: reconstruction from 10000 frames with DAOSTORM
As for the experimental part:
as §1

Experiment [6] relates to focal adhesion. Put plainly: Measurement of binding half-life of probe-target complex. More on the design: species or system Xenopus laevis. Conditions: fixed XTC cell, single exponential fit.
Excerpt: as §2
The measurement of binding half-life, whose result is shown in table 1, was performed in the following procedures. […] Then, by fitting the complementary cumulative relative frequency function with an exponent function, the half-life was calculated. However, the binding half-life with respect to an actin filament of Atto488-Lifeact was measured by using a method that is described in detail in the section for FIG. 9 in the Brief Description of the Drawings.

The test system of experiment [7] is focal adhesion. Kind of experiment: Localization test of probe candidates (integrated SiMS images). The format is cell-based, Xenopus laevis. Further details: key: “localization” is positive (P) when above criterion (1) is met. The following applies: fixed, permeabilized XTC cell; lysate supernatant of EGFP fused probe; TIRF, 10000 frames. As for the experimental part: as §3, §4, §5

For experiment [8], the system named is focal adhesion. Put plainly: Washability test of probe candidates. It is filed as cell-based, Xenopus laevis. Further details: key: “washability” is positive (P) when above criterion (2) is met. The following applies: speckles equal to or less than about 10% after switching imaging solution 10 to 20 times. As for the experimental part: as §6, §7

B1: MAP4 659-908: EGFP fused (N terminus) mouse MAP4 fragment, amino acid residues 659-908 of sequence number 4 (protein, UniProt P27546 659-908, looked up, fragment)
chain: PPNKEPPPSPEKKAKPLATTQPAKTSTSKAKTQPTSLPKQPAPTTSGGLNKKPMSLASGSVPAAPHKRPAAATATARPSTLPARDVKPKPITEAKVAEKRTSPSKPSSAPALKPGPKTTPTVSKATSPSTLVSTGPSSRSPATTLPKRPTSIKTEGKPADVKRMTAKSASADLSRSKTTSASSVKRNTTPTGAAPPAGMTSTRVKPMSAPSRSSGALSVDKKPTSTKPSSSAPRVSRLATTVSAPDLKSV
modifications: N-terminal EGFP fusion
As to B1, the “IRIS IMAGE” value in the experiment on microtubule [1] is listed as “P”. Besides, the HALF-LIFE in the experiment with microtubule [2] stood at 0.106 s. Further, in the experiment on microtubule [3], the LOCALIZATION entry is on record as “P”. In the experiment on microtubule [4], the WASHABILITY entry is “P”.

B2: Paxillin 54-498: EGFP fused (N terminus) human Paxillin fragment, residues 54-498 of sequence number 15 (protein, UniProt P49023 54-498, looked up, fragment)
chain: SSEALNGTILDPLDQWQPSSSRFIHQQPQSSSPVYGSSAKTSSVSNPQDSVGSPCSRVGEEEHVYSFPNKQKSAEPSPTVMSTSLGSNLSELDRLLLELNAVQHNPPGFPADEANSSPPLPGALSPLYGVPETNSPLGGKAGPLTKEKPKRNGGRGLEDVRPSVESLLDELESSVPSPVPAITVNQGEMSSPQRVTSTQQQTRISASSATRELDELMASLSDFKIQGLEQRADGERCWAAGWPRDGGRSSPGGQDEGGFMAQGKTGSSSPPGGPPKPGSQLDSMLGSLQSDLNKLGVATVAKGVCGACKKPIAGQVVTAMGKTWHPEHFVCTHCQEEIGSRNFFERDGQPYCEKDYHNLFSPRCYYCNGPILDKVVTALDRTWHPEHFFCAQCGAFFGPEGFHEKDGKAYCRKDYFDMFAPKCGGCARAILENYISALNTLWHPE
modifications: N-terminal EGFP fusion
Consider B2, for which, in the experiment with focal adhesion [5], the “IRIS IMAGE” value is recorded as “P”. In addition, the HALF-LIFE in the experiment with focal adhesion [6] came out at 0.091 s. In addition, the LOCALIZATION entry in the experiment on focal adhesion [7] is reported as “P”. Besides, in the experiment with focal adhesion [8], the WASHABILITY result is reported as “P”.

B3: Paxillin 167-557: EGFP fused (N terminus) human Paxillin fragment, residues 167-557 of sequence number 15 (protein, UniProt P49023 167-557, looked up, fragment)
chain: ANSSPPLPGALSPLYGVPETNSPLGGKAGPLTKEKPKRNGGRGLEDVRPSVESLLDELESSVPSPVPAITVNQGEMSSPQRVTSTQQQTRISASSATRELDELMASLSDFKIQGLEQRADGERCWAAGWPRDGGRSSPGGQDEGGFMAQGKTGSSSPPGGPPKPGSQLDSMLGSLQSDLNKLGVATVAKGVCGACKKPIAGQVVTAMGKTWHPEHFVCTHCQEEIGSRNFFERDGQPYCEKDYHNLFSPRCYYCNGPILDKVVTALDRTWHPEHFFCAQCGAFFGPEGFHEKDGKAYCRKDYFDMFAPKCGGCARAILENYISALNTLWHPECFVCRECFTPFVNGSFFEHDGQPYCEVHYHERRGSLCSGCQKPITGRCITAMAKKFHPE
modifications: N-terminal EGFP fusion
Consider B3, for which, in the experiment with focal adhesion [5], the “IRIS IMAGE” value was “P”. This molecule also yielded an HALF-LIFE with focal adhesion [6] of 0.138 s. For the same molecule, the LOCALIZATION result with focal adhesion [7] is “P”. In addition, the WASHABILITY entry in the experiment on focal adhesion [8] is listed as “P”.
